According to patent US20220411487A1:

Legend:
[1] = target: full length mouse TMPRSS6 on HEK293 cells (HEK293/mTMPRSS6) (mouse) (UniProt Q9DBI0); test: flow cytometry, HEK293 cells expressing target, secondary alone
[2] = target: full length human TMPRSS6 on HEK293 cells (HEK293/hTMPRSS6) (human) (UniProt Q8IU80); test: as above
[3] = target: full length cynomolgous monkey TMPRSS6 on HEK293 cells (HEK293/mfTMPRSS6) (cynomolgous monkey/Macaca fascicularis); test: as above
[4] = target: catalytically inactive full length human TMPRSS6 on HEK293 cells (HEK293/hTMPRSS6 (S762A)) (human) (UniProt Q8IU80); test: as above
Sequence of catalytically inactive full length human TMPRSS6 on HEK293 cells (HEK293/hTMPRSS6 (S762A)) (human) (Q8IU80 10-811 S762A): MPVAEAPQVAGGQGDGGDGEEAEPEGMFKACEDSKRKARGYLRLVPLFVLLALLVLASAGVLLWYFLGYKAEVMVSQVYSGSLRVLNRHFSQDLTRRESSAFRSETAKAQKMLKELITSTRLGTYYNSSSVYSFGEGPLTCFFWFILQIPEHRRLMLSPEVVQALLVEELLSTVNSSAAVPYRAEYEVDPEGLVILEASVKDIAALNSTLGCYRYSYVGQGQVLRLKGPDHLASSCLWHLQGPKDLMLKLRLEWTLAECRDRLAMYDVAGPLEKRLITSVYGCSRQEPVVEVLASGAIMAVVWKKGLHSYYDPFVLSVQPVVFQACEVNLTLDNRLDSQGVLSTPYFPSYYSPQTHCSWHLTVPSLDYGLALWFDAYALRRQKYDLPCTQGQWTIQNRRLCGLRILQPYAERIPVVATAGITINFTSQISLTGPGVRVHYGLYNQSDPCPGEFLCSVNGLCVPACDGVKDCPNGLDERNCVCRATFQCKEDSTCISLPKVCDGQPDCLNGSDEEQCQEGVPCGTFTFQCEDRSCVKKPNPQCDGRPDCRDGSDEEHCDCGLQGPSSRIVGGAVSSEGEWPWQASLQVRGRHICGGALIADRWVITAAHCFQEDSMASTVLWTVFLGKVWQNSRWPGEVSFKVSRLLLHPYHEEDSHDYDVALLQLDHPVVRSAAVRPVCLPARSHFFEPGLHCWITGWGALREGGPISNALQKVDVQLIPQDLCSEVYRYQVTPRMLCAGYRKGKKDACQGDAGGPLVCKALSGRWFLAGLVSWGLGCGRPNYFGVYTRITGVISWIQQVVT

[5] = target: full length human TMPRSS6 with a C-terminal triple myc tag on HEK293.hHJV cells (HEK293.hHJV/3xMyc.hTMPRSS6) (human) (UniProt Q8IU80); test: cell-based or functional assay
[6] = target: full-length mouse TMPRSS6 with a C-terminal triple myc tag on HEK293.hHJV cells (HEK293.hHJV/3xMyc.mTMPRSS6) (mouse) (UniProt Q9DBI0); test: cell-based or functional assay
[7] = target: full length mouse TMPRSS6 on HEK293 cells (HEK293/mTMPRSS6) (mouse) (UniProt Q9DBI0); test: flow cytometry, HEK293 cells expressing target
[8] = target: full length human TMPRSS6 on HEK293 cells (HEK293/hTMPRSS6) (human) (UniProt Q8IU80); test: flow cytometry, HEK293 cells expressing target
[9] = target: full length cynomolgous monkey TMPRSS6 on HEK293 cells (HEK293/mfTMPRSS6) (cynomolgous monkey/Macaca fascicularis); test: flow cytometry, HEK293 cells expressing target
[10] = target: catalytically inactive full length human TMPRSS6 on HEK293 cells (HEK293/hTMPRSS6 (S762A)) (human) (UniProt Q8IU80); test: flow cytometry, HEK293 cells expressing target

Sequence of full length human TMPRSS6 on HEK293 cells (HEK293/hTMPRSS6) (human) (Q8IU80 10-811 limits assumed): as the sequence (Q8IU80 10-811 S762A) above, with A753S counted along it
Sequence of full length cynomolgous monkey TMPRSS6 on HEK293 cells (HEK293/mfTMPRSS6) (cynomolgous monkey/Macaca fascicularis) (Q8IU80 other isoform, or with tags, fused parts or gaps): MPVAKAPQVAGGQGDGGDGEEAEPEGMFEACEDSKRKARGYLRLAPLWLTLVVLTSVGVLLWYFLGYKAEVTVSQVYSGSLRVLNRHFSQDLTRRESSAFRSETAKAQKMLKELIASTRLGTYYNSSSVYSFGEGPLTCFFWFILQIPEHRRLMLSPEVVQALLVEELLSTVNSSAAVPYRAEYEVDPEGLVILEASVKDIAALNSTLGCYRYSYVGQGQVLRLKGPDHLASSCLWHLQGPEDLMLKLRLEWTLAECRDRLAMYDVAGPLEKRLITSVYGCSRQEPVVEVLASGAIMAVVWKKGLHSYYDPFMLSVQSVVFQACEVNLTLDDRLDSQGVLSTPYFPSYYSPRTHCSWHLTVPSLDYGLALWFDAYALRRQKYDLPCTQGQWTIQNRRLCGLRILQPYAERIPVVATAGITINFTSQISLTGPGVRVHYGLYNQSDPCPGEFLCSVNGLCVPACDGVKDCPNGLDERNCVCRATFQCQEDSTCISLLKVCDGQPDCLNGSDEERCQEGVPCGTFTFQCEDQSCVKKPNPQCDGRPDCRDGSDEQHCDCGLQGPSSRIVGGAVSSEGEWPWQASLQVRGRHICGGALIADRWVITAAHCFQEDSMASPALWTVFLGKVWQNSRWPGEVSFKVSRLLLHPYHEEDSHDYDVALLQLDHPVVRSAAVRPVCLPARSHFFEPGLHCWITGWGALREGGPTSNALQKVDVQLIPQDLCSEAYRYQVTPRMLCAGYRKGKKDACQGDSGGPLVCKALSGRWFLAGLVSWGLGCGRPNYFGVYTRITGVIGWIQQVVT
Sequence of full length mouse TMPRSS6 on HEK293 cells (HEK293/mTMPRSS6) (mouse) (Q9DBI0 whole entry): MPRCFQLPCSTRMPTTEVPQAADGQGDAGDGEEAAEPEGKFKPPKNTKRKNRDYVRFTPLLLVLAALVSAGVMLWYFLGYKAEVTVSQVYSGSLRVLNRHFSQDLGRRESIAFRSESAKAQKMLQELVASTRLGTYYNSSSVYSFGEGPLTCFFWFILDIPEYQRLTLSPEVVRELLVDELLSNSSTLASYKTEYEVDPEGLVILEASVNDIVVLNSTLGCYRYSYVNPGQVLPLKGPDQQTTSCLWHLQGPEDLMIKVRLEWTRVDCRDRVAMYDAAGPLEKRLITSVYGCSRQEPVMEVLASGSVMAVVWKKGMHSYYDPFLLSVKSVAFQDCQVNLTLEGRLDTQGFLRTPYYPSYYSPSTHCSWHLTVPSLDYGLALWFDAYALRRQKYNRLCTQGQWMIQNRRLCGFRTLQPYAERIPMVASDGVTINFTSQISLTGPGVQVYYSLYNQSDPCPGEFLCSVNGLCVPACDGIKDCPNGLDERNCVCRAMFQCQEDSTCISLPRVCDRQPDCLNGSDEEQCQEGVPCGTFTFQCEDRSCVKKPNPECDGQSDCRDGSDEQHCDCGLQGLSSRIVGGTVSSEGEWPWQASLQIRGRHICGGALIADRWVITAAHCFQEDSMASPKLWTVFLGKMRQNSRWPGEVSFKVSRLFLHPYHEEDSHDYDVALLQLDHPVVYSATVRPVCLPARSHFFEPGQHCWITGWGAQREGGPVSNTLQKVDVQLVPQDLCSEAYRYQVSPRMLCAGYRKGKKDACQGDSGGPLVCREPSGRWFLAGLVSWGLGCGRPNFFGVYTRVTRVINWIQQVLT

Alexa Fluor-647 conjugated anti-human secondary antibody (Jackson ImmunoResearch #109-607-003)
Max. Fold Binding (fold over unstained control) [1]: 1
Max. Fold Binding (fold over unstained control) [2]: 1
Max. Fold Binding (fold over unstained control) [3]: 1
Max. Fold Binding (fold over unstained control) [4]: 2

Isotype Control (antibody)
Geometric Mean Fluorescence Intensity of cell surface hHJV [5]: 11700
Inhibition (%) of soluble hHJV release (ELISA) [5]: 15.7%
Median Fluorescence Intensity of cell surface hHJV [5]: 13000
Geometric Mean Fluorescence Intensity of cell surface hHJV [6]: 7750
Inhibition (%) of soluble hHJV release (ELISA) [6]: 5.2%
Median Fluorescence Intensity of cell surface hHJV [6]: 7230

hIgG Subclass Control (antibody)
Max. Fold Binding (fold over unstained control) [7]: 1
Max. Fold Binding (fold over unstained control) [8]: 1
Max. Fold Binding (fold over unstained control) [9]: 1
Max. Fold Binding (fold over unstained control) [10]: 3
